In paper PMC11612773 (2024) one finds Kd data, which are given here for two proteins.

This series deals with the molecule itself.

B1: recombinant soybean dehydrin GmPM12 (Glyma.04G009900.1) with carboxy-terminal hexahistidyl tag (natural protein)
chain: MAEAQLRDQHGNPVPLTDQYGNPVILTDERGNPVQLTGVATTATGTAGSGFGSYGTGAYGGGASATTVADLLATQPRSGREARELRRSSSSSSSSSEDDGQGGRRKKGVKDKIKEKLPGVGGGNNNKEHAHTTTAPTTATNHPADQHEKKGIMERIKEKLPGHHTHLE
Protein B1 displayed a Kd of 6.8 µM.

B2: recombinant Arabidopsis dehydrin LEA14 (AT2G21490) with carboxy-terminal hexahistidyl tag (natural protein)
chain: MADLRDEKGNPIHLTDTQGNPIVDLTDEHGNPMYLTGVVSSTPQHKESTTSDIAEHPTSTVGETHPAAAPAGAGAATAATATGVSAGTGATTTGQQHHGSLEEHLRRSGSSSSSSSEDDGQGGRRKKSIKEKIKEKFGSGKHKDEQTPATATTTGPATTDQPHEKKGILEKIKDKLPGHHNHNHP
With B2, the affinity, expressed as Kd, was 13.3 µM.

By Kd is commonly meant a measure of binding affinity in units of concentration.
